Biological target: Orai1 V102A (human, UniProt Q96D31-1 1-301, V102A)
Test: cell-based or functional assay

Sequence of Orai1 V102A (Q96D31 whole entry V102A): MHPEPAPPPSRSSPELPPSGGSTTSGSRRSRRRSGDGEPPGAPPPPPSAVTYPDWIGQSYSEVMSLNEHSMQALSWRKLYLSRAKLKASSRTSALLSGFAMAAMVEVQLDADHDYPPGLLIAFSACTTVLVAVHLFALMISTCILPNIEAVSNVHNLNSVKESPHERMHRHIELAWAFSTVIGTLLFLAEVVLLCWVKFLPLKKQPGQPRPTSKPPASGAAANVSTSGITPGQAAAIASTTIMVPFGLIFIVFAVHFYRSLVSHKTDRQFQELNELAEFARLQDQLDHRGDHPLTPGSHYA

Vrev [mV] of Orai1 V102A currents, whole-cell patch clamp in HEK293 cells: 31.6 mV
B1: STIM1 Δα2 (STIM1 Δ393-398), CFP/YFP-labeled (natural protein, human, UniProt Q13586-1 23-685, looked up)
chain: LSHSHSEKATGTSSGANSEESTAAEFCRIDKPLCHSEDEKLSFEAVRNIHKLMDDDANGDVDVEESDEFLREDLNYHDPTVKHSTFHGEDKLISVEDLWKAWKSSEVYNWTVDEVVQWLITYVELPQYEETFRKLQLSGHAMPRLAVTNTTMTGTVLKMTDRSHRQKLQLKALDTVLFGPPLLTRHNHLKDFMLVVSIVIGVGGCWFAYIQNRYSKEHMKKMMKDLEGLHRAEQSLHDLQERLHKAQEEHRTVEVEKVHLEKKLRDEINLAKQEAQRLKELREGTENERSRQKYAEEELEQVREALRKAEKELESHSSWYAPEALQKWLQLTHEVEVQYYNIKKQNAEKQLLVAKEGAEKIKKKRNTLFGSSSLDDVDHKILTAKQALSEVTAALRERLHRWQQIEILCGFQIVNNPGIHSLVAALNIDPSWMGSTRPNPAHFIMTDDVDDMDEEIVSPLSMQSPSLQSSVRQRLTEPQHGLGSQRDLTHSDSESSLHMSDRQRVAPKPPQMSRAADEALNAMTSNGSHRLIEGVHPGSLVEKLPDSPALAKKALLALNHGLDKAHSLMELSPSAPPGGSPHLDSSRSHSPSSPDPDTPSPVGDSRALQASRNTRIPHLAGKKAVAEEDNGSIGEETDSSPGRKKFPLKIFKKPLKK
